± gives the standard deviation.
Assay: protein stability index of a GFP-peptide fusion (GPS, HEK-293T) (PSI 1-6); higher = more stable
[1] = treatment: DMSO, c terminus: a fixed tail appended
[2] = treatment: MLN4924 1 uM, 8 h, c terminus: a fixed tail appended
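Further: 24-mer peptide tiles fused after GFP, lentivirally expressed, FACS-sorted into six equal bins by GFP/DsRed ratio, decoded by Illumina sequencing, PSI is the read-weighted mean bin number.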

Row | Sequence | protein stability index [1] | protein stability index [2] | protein stability index (treatment: DMSO, c terminus: native) | protein stability index (treatment: MLN4924 1 uM, 8 h, c terminus: native)
1 | HSKLLVSGFWGVARHFNYVGDLMG [DHCR7] | 2.34 ± 0.53 | 2.33 ± 0.44 | – | –
2 | GGSGGGGGGDEDGSLGSRAEPAPR [SMAD6] | 5.38 ± 0.21 | 5.41 ± 0.13 | – | –
3 | TPHVYWAQRHRELYLRVELSDVQN [HACD3] | 2.28 ± 0.14 | 2.17 ± 0.24 | – | –
4 | VHQLSKKEASRHAIMRSPQMVSAI [CTNNB1] | 3.06 ± 0.26 | 3.06 ± 0.22 | – | –
5 | EWIRFDQSNVLCSIFGICMVFSGL [PTGFR] | 2.87 ± 0.59 | 3.15 ± 0.071 | – | –
6 | SLRIALSEHLKQRREVAKTVFCLV [EDNRA] | 1.93 ± 0.34 | 2.26 ± 0.3 | – | –
7 | EKFSSSLHELSSRVEASHLTTSQE [FBF1] | 4.99 ± 0.19 | 5.01 ± 0.11 | – | –
8 | SKARTKSLLGDDVFSTMAGLEEAD [FBF1] | 4.87 ± 0.29 | 5.05 ± 0.2 | – | –
9 | LPSWAELLRPKYRAPQGCSGVDEC [PBXIP1] | 2.83 ± 0.11 | 2.69 ± 0.46 | – | –
10 | CLPLTFCIHTGLSQYIAVEAAEGR [FBXO3] | 2.96 ± 0.72 | 2.4 ± 0.93 | – | –
11 | QTKQVYDAVGMLGIEEVTYENCLQ [NLN] | 3.56 ± 0.4 | 3.73 ± 0.53 | – | –
12 | EKRNAGNAVRSAMKSEEQKIKDAR [KMT5A] | 4.72 ± 0.15 | 5.09 ± 0.21 | – | –
13 | TKMWHPNIYETGDVCISILHPPVD [CDC34] | 2.23 ± 0.2 | 2.12 ± 0.37 | – | –
14 | PSQDERMRSPQNLHSQEDDDSSSE [NOL4L] | 5.62 ± 0.14 | 5.56 ± 0.21 | – | –
15 | PGPGIGGDAHFDEDERWTNNFREY [MMP1] | 4.14 ± 0.39 | 4.2 ± 0.35 | – | –
16 | LSDFGLCTGLKKAHRTEFYRNLTH [STK38L] | 2.41 ± 0.6 | 2.2 ± 0.27 | – | –
17 | EEWGHQDPSKRALSRDTVQESYEN [ZNF263] | 5.27 ± 0.4 | 5.3 ± 0.23 | – | –
18 | KETVNVKTVCGYYTSAGTYGLDSV [GMCL1] | 2.48 ± 0.29 | 2.68 ± 0.3 | – | –
19 | CATTNASGNSCGPCGTSQKGCCN [KRT34] | – | – | 3.78 ± 0.17 | 3.66 ± 0.31
20 | MCTKMEQPFYHDDSYTATGYGRAP [JUNB] | 3.19 ± 0.19 | 3.25 ± 0.24 | – | –
21 | TYRIENYTPDLPRADVDHAIEKAF [MMP1] | 3.4 ± 0.18 | 3.39 ± 0.31 | – | –
22 | ENAGGSPSPEPAGRRAALYVHWPY [RSAD1] | 3 ± 0.4 | 3.23 ± 0.34 | – | –
23 | FTDCSFFVRGQEFKAHKSVLAARS [SPOPL] | 2.95 ± 0.69 | 2.61 ± 0.57 | – | –

Row | Sequence | protein stability index [1] | protein stability index [2] | protein stability index (treatment: DMSO, c terminus: native) | protein stability index (treatment: MLN4924 1 uM, 8 h, c terminus: native)
24 | TAGLKIFEPPAPGEGNSSQNSRNK [TNFSF13B] | 5.2 ± 0.22 | 5.24 ± 0.15 | – | –
25 | SESGKLVTKMFQKIQDLIDDKDAL [TRIP13] | 3.43 ± 0.17 | 3.42 ± 0.2 | – | –
26 | DTPVQNKRRRSVTPPEEQQEAEEP [CDC25B] | 5.51 ± 0.35 | 5.71 ± 0.22 | – | –
27 | VEVDAPKSQDLAKIMADIRAQYDE [KRT18] | 4.76 ± 0.12 | 4.71 ± 0.17 | – | –
28 | TSYKVMVSNDSHTWVTVKNGSGDM [CPXM2] | 2.8 ± 0.38 | 2.94 ± 0.27 | – | –
29 | SFEAPLTPLIQQRARDSPEPGAGL [PSD2] | 4.66 ± 0.22 | 4.68 ± 0.2 | – | –
30 | GELLNMIVAVIDSAQLQELVCHVM [INTS3] | 2.92 ± 0.59 | 2.6 ± 0.72 | – | –
31 | VVEATHMCMVMRGVQKMNSKTVTS [GCH1] | 2.82 ± 0.31 | 3 ± 0.45 | – | –
32 | TSRRPSGTGTGPEDGRPSLGSPYG [PDLIM4] | 4.67 ± 0.21 | 4.67 ± 0.2 | – | –
33 | NISELKRTFLETSTDTAVTNEWEK [EPB41L3] | 4.82 ± 0.25 | 4.686 ± 0.034 | – | –
34 | QRTIMKPLEYQFKSQIMSLSHSPQ [TLE6] | 2.89 ± 0.26 | 3.2 ± 0.23 | – | –
35 | SDGFRDCKKGDPKHGKRKRGRPRK [ELF3] | 5.18 ± 0.35 | 5.22 ± 0.15 | – | –
36 | FLSSEKQICGTHRQTKKMFCDMDK [TRIM43] | 3.18 ± 0.33 | 3.4 ± 0.19 | – | –
37 | PEDLQTDLAKLVDQQNPTLGETPE [ZNF449] | 5.62 ± 0.23 | 5.73 ± 0.2 | – | –
38 | GGAAGAGWCIFVYNLSPEADESVL [ELAVL3] | 3.22 ± 1.1 | 2.52 ± 0.91 | – | –
39 | KKDTGHIYAMKILRKSDMLEKEQV [STK38L] | 3.36 ± 0.39 | 3.54 ± 0.21 | – | –
40 | FGHRFIILDTDEYVLKYMESNAAQ [EFHC1] | 2.25 ± 0.45 | 2.05 ± 0.31 | – | –
41 | TVCDPARSCAIVEDDGLQSAFTAA [ADAMTS4] | 3.6 ± 0.85 | 4.16 ± 0.47 | – | –
42 | RNGMASEGLNSSLCSPGHERRGTP [PSD2] | 4.72 ± 0.34 | 4.61 ± 0.28 | – | –
43 | GADREFIEARRRALKRFVNLVARH [SNX8] | 2.45 ± 0.15 | 2.64 ± 0.25 | – | –
44 | AEPGFEPADCKRKEEAGAPGGGAG [CEBPB] | 5.48 ± 0.47 | 5.56 ± 0.15 | – | –
45 | LDEGMQIPSTQFDAAHPTNVQRLA [CTNNB1] | 4.73 ± 0.12 | 4.7 ± 0.2 | – | –
46 | PPLSDPKQAKVVARRESGGRPIKP [BRD3] | 5.21 ± 0.15 | 5.12 ± 0.18 | – | –

Row | Sequence | protein stability index [1] | protein stability index [2] | protein stability index (treatment: DMSO, c terminus: native) | protein stability index (treatment: MLN4924 1 uM, 8 h, c terminus: native)
47 | NNEIPDCYTFSVLITFDNKAHSGR [MCOLN1] | 2.34 ± 0.31 | 2.42 ± 0.53 | – | –
48 | TLMGKLKLKNTVTIQQEKLLAEKE [SASS6] | 3.406 ± 0.012 | 3.39 ± 0.58 | – | –
49 | TLRTLTGQDTMLKAMFSGRVEVLT [KCTD13] | 2.44 ± 0.22 | 2.37 ± 0.29 | – | –
50 | SGAGHGSGSGSGPGCGSVPGSGSG [SPAG8] | 5.03 ± 0.17 | 4.96 ± 0.4 | – | –
51 | EEFILLSQGEVEKLIKCDEIQVDS [KLHL12] | 4.49 ± 0.58 | 4.45 ± 0.48 | – | –
52 | FLTYVPLLGLKAFLGLFFIVRFLE [FADS1] | 2.56 ± 0.6 | 2.17 ± 0.67 | – | –
53 | FQEDVPMSTEEQYRIRQVNIYYYL [EFHC1] | 2.52 ± 0.78 | 2.22 ± 0.15 | – | –
54 | CFRMQINHAIDIICGFLKERCFRG [OAS1] | 2.44 ± 0.66 | 2.61 ± 0.36 | – | –
55 | GNVKIDSQKLNFREHAKARVDHGA [MAP2] | 4.22 ± 0.14 | 4.23 ± 0.52 | – | –
56 | IQEQPGQEQVAGGEAQPGLPQEDP [FEM1A] | 5.58 ± 0.16 | 5.57 ± 0.16 | – | –
57 | SSGRELGRPKELQPKKLHLCPLCG [ZNF263] | 3.53 ± 0.2 | 3.99 ± 0.58 | – | –
58 | HVLLPVALEFQPQLVLVAAGFDAL [HDAC6] | 3.25 ± 0.43 | 2.78 ± 0.43 | – | –
59 | WQRGLNTPEDSDPDHFDTAILFTR [ADAMTS4] | 3.54 ± 0.25 | 3.5 ± 0.46 | – | –
60 | PPNADLEQGFQEGVPNASVIMQVP [MFF] | 4.83 ± 0.18 | 4.72 ± 0.33 | – | –
61 | LTRFLSRVIKCDPDCLRACQEQIE [CCND1] | 2.34 ± 0.16 | 2.56 ± 0.07 | – | –
62 | QHECVNTDDSYSCHCLKGFTLNPD [MATN2] | 4.04 ± 0.16 | 4.15 ± 0.25 | – | –
63 | KPIVPTDGKRVIVVFHCEFSSERG [CDC25A] | 2.64 ± 0.72 | 2.33 ± 0.28 | – | –
64 | MSTIGSFEGFQAVSLKQEGDDQPS [TPRG1] | 5.22 ± 0.082 | 5.22 ± 0.078 | – | –
65 | QMREAFATAFSKLKPESSQQPGQD [ZBED1] | 4.57 ± 0.19 | 4.62 ± 0.094 | – | –
66 | HFMVLSKSGPGDGFFSSAFQARLS [POMT2] | 2.19 ± 0.11 | 2.06 ± 0.18 | – | –
67 | MTTALQGQRLAVCVPAHPPPCAWA [CTBP1-DT] | 2.43 ± 0.2 | 2.56 ± 0.14 | – | –
68 | LLEGQDAKMAGIGIREASSGGGGS [KRT15] | 5.09 ± 0.14 | 4.87 ± 0.2 | – | –
69 | TLVMFQSLGERMNTFVRYLLKRIK [KCNK9] | 3 ± 0.54 | 2.73 ± 0.23 | – | –

Row | Sequence | protein stability index [1] | protein stability index [2] | protein stability index (treatment: DMSO, c terminus: native) | protein stability index (treatment: MLN4924 1 uM, 8 h, c terminus: native)
70 | SYSAGDSGDAAAQPAFTGIKGKEG [EPB41L3] | 5.37 ± 0.15 | 5.3 ± 0.25 | – | –
71 | ADKYALERLKVMCEEALCSNLSVE [SPOPL] | 3.56 ± 0.18 | 3.62 ± 0.18 | – | –
72 | GSGGGYGGGMRVCGFGGGAGSVFG [KRT15] | 2.18 ± 0.29 | 2.34 ± 0.22 | – | –
73 | PAPCADGPAGGLADLSSGSSGEDD [PWWP2B] | 5.51 ± 0.23 | 5.66 ± 0.15 | – | –
74 | SFEDDCSQSLCLNKPTMSFKDYIQ [ETS2] | 3.52 ± 0.15 | 3.67 ± 0.28 | – | –
75 | RYQQSKAAALKCQLCEKAPKEATV [TRIM9] | 3.85 ± 0.28 | 4.01 ± 0.14 | – | –
76 | LLDDGQQASPYHPGSCGAGAPSPG [ELF3] | 4.71 ± 0.1 | 4.57 ± 0.39 | – | –
77 | YRPLKQELQGLDYCKPTRLDLLLD [SPSB1] | 2.77 ± 0.29 | 2.6 ± 0.32 | – | –
78 | KEHYLTFEKSRYETYIHLLAMKIK [PSD2] | 3.28 ± 0.76 | 2.73 ± 0.94 | – | –
79 | TKLSAQSAQYSQQLQAARNEYLLN [FCHSD1] | 3.19 ± 0.055 | 3.33 ± 0.18 | – | –
80 | YCFCGWIVLGPYHVKFRSLSMVSE [MCOLN1] | 2.85 ± 1.1 | 3.1 ± 1.3 | – | –
81 | ISSMADFWDFAQGPLLDSLYWTKW [PKD2L1] | 2.85 ± 1.3 | 2.53 ± 1.6 | – | –
82 | NGVLGLSRLLFFLLGFLRIRVRGQ [LPCAT4] | 2.2 ± 0.34 | 2.44 ± 0.25 | – | –
83 | GLLLESLVPFIVNDNITNNFFRFL [DYNC2LI1] | 2.9 ± 0.44 | 3.17 ± 0.62 | – | –
84 | LLTWTEPPVRPAGYLLSFHTPGGQ [TNXB] | 2.42 ± 0.23 | 2.64 ± 0.29 | – | –
85 | VAVNNIGRGPPSEPVLTQTSEQAP [PTPRD] | 4.78 ± 0.2 | 5.02 ± 0.49 | – | –
86 | SFQMSEGSEAAVIPLDLGCTQVTQ [FAM189A2] | 4.56 ± 0.17 | 4.43 ± 0.31 | – | –
87 | RERDSVPKPSVLFLHPDLGVGGAE [ALG2] | 4.08 ± 0.41 | 4.21 ± 0.16 | – | –
88 | TSVGMSFVAGGISGTVAAVLTLPF [SLC25A39] | 2.95 ± 0.77 | 2.54 ± 0.25 | – | –
89 | YDVAMNRAKDLVELDPEVEGTKPS [GOLPH3L] | 5.54 ± 0.2 | 5.603 ± 0.052 | – | –

Reference: the supplement of paper PMC10567573
